Data from the Human Domainome abundance scans (Beltran et al. 2025).
± gives the uncertainty stated by the source.

B1: Protein S100-G, residues 1 to 79; numbered along this chain, P02633 (parent)
chain: MSAKKSPEELKGIFEKYAAKEGDPNQLSKEELKLLLQTEFPSLLKGPSTLDELFEELDKNGDGEVSFEEFQVLVKKISQ

Variants of: B1
Experiment: abundance fitness (aPCA) (normalised: wild type 0, dead -1); higher = more abundant; growth selection in yeast, the domain comes from the species named
Settings: Bos taurus

Going from MSAKKSPEELKGIFEKYAAKEGDPNQLSKEELKLLLQTEFPSLLKGPSTLDELFEELDKNGDGEVSFEEFQVLVSKISQ [K75S] to MSAKKSPEELKGIFEKYAAKEGDPNQLSKEELKLLLQTEFPSLLKGPSTLDELFEELDKNGDGEVSFEEFQVLVYKISQ [K75Y], the abundance fitness falls from -0.023 ± 0.063 to -0.173 ± 0.084.

MSAKKSPEELKGIFEKYAAKEGDPNQLSKEELKLLLQTEFPSLLKGPSTLDELFEELDKNGDGEVSFEEFQVLVTKISQ [K75T] and MSAKKSPEELKGIFEKYAAKEGDPNQLSKEELKLLLQTEFPSLLKGPSTLDELFEELDKNGDGEVSFEEFQVLVVKISQ [K75V] are within error of each other in abundance fitness: -0.073 ± 0.067 for the first, -0.074 ± 0.076 for the second.

MSAKKSPEELKGIFEKYAAKEGDPNQLSKEELKLLLQTEFPSLLKGPSTLDELFEELDKNGDGEVSFEEFQVLVWKISQ [K75W] and MSAKKSPEELKGIFEKYAAKEGDPNQLSKEELKLLLQTEFPSLLKGPSTLDELFEELDKNGDGEVSFEEFQVLVKKRSQ [I77R] are within error of each other in abundance fitness: -0.125 ± 0.087 for the first, -0.179 ± 0.065 for the second.

MSAKKSPEELKGIFEKYAAKEGDPNQLSKEELKLLLQTEFPSLLKGPSTLDELFEELDKNGDGEVSFEEFQVLVKKMSQ [I77M] and MSAKKSPEELKGIFEKYAAKEGDPNQLSKEELKLLLQTEFPSLLKGPSTLDELFEELDKNGDGEVSFEEFQVLVKKESQ [I77E] are within error of each other in abundance fitness: -0.143 ± 0.075 for the first, -0.142 ± 0.1 for the second.

MSAKKSPEELKGIFEKYAAKEGDPNQLSKEELKLLLQTEFPSLLKGPSTLDELFEELDKNGDGEVSFEEFQVLVKKGSQ [I77G] and MSAKKSPEELKGIFEKYAAKEGDPNQLSKEELKLLLQTEFPSLLKGPSTLDELFEELDKNGDGEVSFEEFQVLVKKFSQ [I77F] are within error of each other in abundance fitness: -0.111 ± 0.089 for the first, 0.051 ± 0.084 for the second.

MSAKKSPEELKGIFEKYAAKEGDPNQLSKEELKLLLQTEFPSLLKGPSTLDELFEELDKNGDGEVSFEEFQVLVKKNSQ [I77N] and MSAKKSPEELKGIFEKYAAKEGDPNQLSKEELKLLLQTEFPSLLKGPSTLDELFEELDKNGDGEVSFEEFQVLVKKQSQ [I77Q] are within error of each other in abundance fitness: -0.025 ± 0.084 for the first, -0.092 ± 0.066 for the second.

MSAKKSPEELKGIFEKYAAKEGDPNQLSKEELKLLLQTEFPSLLKGPSTLDELFEELDKNGDGEVSFEEFQVLVKKDSQ [I77D] and MSAKKSPEELKGIFEKYAAKEGDPNQLSKEELKLLLQTEFPSLLKGPSTLDELFEELDKNGDGEVSFEEFQVLVKKHSQ [I77H] are within error of each other in abundance fitness: -0.17 ± 0.11 for the first, -0.155 ± 0.068 for the second.

MSAKKSPEELKGIFEKYAAKEGDPNQLSKEELKLLLQTEFPSLLKGPSTLDELFEELDKNGDGEVSFEEFQVLVKKKSQ [I77K] and MSAKKSPEELKGIFEKYAAKEGDPNQLSKEELKLLLQTEFPSLLKGPSTLDELFEELDKNGDGEVSFEEFQVLVKKLSQ [I77L] are within error of each other in abundance fitness: -0.148 ± 0.083 for the first, -0.073 ± 0.058 for the second.

MSAKKSPEELKGIFEKYAAKEGDPNQLSKEELKLLLQTEFPSLLKGPSTLDELFEELDKNGDGEVSFEEFQVLVKKASQ [I77A] and MSAKKSPEELKGIFEKYAAKEGDPNQLSKEELKLLLQTEFPSLLKGPSTLDELFEELDKNGDGEVSFEEFQVLVKKCSQ [I77C] are within error of each other in abundance fitness: -0.169 ± 0.076 for the first, -0.136 ± 0.11 for the second.

MSAKKSPEELKGIFEKYAAKEGDPNQLSKEELKLLLQTEFPSLLKGPSTLDELFEELDKNGDGEVSFEEFQVLVKHISQ [K76H] and MSAKKSPEELKGIFEKYAAKEGDPNQLSKEELKLLLQTEFPSLLKGPSTLDELFEELDKNGDGEVSFEEFQVLVKMISQ [K76M] are within error of each other in abundance fitness: -0.153 ± 0.072 for the first, -0.218 ± 0.087 for the second.

MSAKKSPEELKGIFEKYAAKEGDPNQLSKEELKLLLQTEFPSLLKGPSTLDELFEELDKNGDGEVSFEEFQVLVKSISQ [K76S] and MSAKKSPEELKGIFEKYAAKEGDPNQLSKEELKLLLQTEFPSLLKGPSTLDELFEELDKNGDGEVSFEEFQVLVKNISQ [K76N] are within error of each other in abundance fitness: -0.119 ± 0.061 for the first, -0.196 ± 0.076 for the second.

MSAKKSPEELKGIFEKYAAKEGDPNQLSKEELKLLLQTEFPSLLKGPSTLDELFEELDKNGDGEVSFEEFQVLVKRISQ [K76R] and MSAKKSPEELKGIFEKYAAKEGDPNQLSKEELKLLLQTEFPSLLKGPSTLDELFEELDKNGDGEVSFEEFQVLVKVISQ [K76V] are within error of each other in abundance fitness: -0.094 ± 0.071 for the first, -0.191 ± 0.071 for the second.

MSAKKSPEELKGIFEKYAAKEGDPNQLSKEELKLLLQTEFPSLLKGPSTLDELFEELDKNGDGEVSFEEFQVLVKTISQ [K76T] and MSAKKSPEELKGIFEKYAAKEGDPNQLSKEELKLLLQTEFPSLLKGPSTLDELFEELDKNGDGEVSFEEFQVLVKEISQ [K76E] are within error of each other in abundance fitness: -0.175 ± 0.064 for the first, -0.126 ± 0.1 for the second.

MSAKKSPEELKGIFEKYAAKEGDPNQLSKEELKLLLQTEFPSLLKGPSTLDELFEELDKNGDGEVSFEEFQVLVKCISQ [K76C] and MSAKKSPEELKGIFEKYAAKEGDPNQLSKEELKLLLQTEFPSLLKGPSTLDELFEELDKNGDGEVSFEEFQVLVKLISQ [K76L] are within error of each other in abundance fitness: -0.29 ± 0.089 for the first, -0.247 ± 0.059 for the second.

MSAKKSPEELKGIFEKYAAKEGDPNQLSKEELKLLLQTEFPSLLKGPSTLDELFEELDKNGDGEVSFEEFQVLVKGISQ [K76G] and MSAKKSPEELKGIFEKYAAKEGDPNQLSKEELKLLLQTEFPSLLKGPSTLDELFEELDKNGDGEVSFEEFQVLVKIISQ [K76I] are within error of each other in abundance fitness: 0.011 ± 0.091 for the first, -0.131 ± 0.074 for the second.

Going from MSAKKSPEELKGIFEKYAAKEGDPNQLSKEELKLLLQTEFPSLLKGPSTLDELFEELDKNGDGEVSFEEFQVLVKYISQ [K76Y] to MSAKKSPEELKGIFEKYAAKEGDPNQLSKEELKLLLQTEFPSLLKGPSTLDELFEELDKNGDGEVSFEEFQVLVKDISQ [K76D], the abundance fitness rises from -0.325 ± 0.076 to -0.127 ± 0.088.

First: MSAKKSPEELKGIFEKYAAKEGDPNQLSKEELKLLLQTEFPSLLKGPSTLDELFEELDKNGDGEVSFEEFQVLVKWISQ [K76W]
Second: MSAKKSPEELKGIFEKYAAKEGDPNQLSKEELKLLLQTEFPSLLKGPSTLDELFEELDKNGDGEVSFEEFQVLVKQISQ [K76Q]
The abundance fitness of the first is lower: -0.293 ± 0.097 for the first, -0.056 ± 0.079 for the second.

MSAKKSPEELKGIFEKYAAKEGDPNQLSKEELKLLLQTEFPSLLKGPSTLDELFEELDKNGDGEVSFEEFQVLVKPISQ [K76P] gave an abundance fitness of -0.238 ± 0.066.
